Consider 20 molecules from US10077319B2, “Anti-PCSK9-GLP-1 fusions and methods for use” (MedImmune, LLC, priority 2014, dated 2018).

The assay addresses human GLP-1 receptor (Homo sapiens, UniProt P43220). The assay is described as follows: cAMP production assay in CHO cells expressing human GLP-1 receptor. In kind it is cell-based. The note with it: for % Max Effect / Potency at huGLP-1R in cAMP assay (M): Table 18; for % Max Effect: maximum activation compared to GLP-1. (In general: Changes in cAMP serve as a functional read-out for many G protein-coupled receptors.)

Sequence of human GLP-1 receptor (P43220 24-463): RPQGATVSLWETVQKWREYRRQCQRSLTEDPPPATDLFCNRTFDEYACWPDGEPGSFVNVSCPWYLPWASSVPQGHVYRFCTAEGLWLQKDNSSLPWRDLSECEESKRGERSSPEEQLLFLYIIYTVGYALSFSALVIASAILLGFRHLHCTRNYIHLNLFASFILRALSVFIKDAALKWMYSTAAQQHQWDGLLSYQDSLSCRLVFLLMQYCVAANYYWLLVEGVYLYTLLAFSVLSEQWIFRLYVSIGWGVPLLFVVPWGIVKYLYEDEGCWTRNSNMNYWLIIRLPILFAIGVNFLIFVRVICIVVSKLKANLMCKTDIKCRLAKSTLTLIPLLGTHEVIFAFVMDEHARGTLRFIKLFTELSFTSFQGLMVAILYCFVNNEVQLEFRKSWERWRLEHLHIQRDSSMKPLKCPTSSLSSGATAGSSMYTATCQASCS
Protocol: Low protein binding 384-well plates (Greiner) were used to perform eleven 1 in 4 serial dilutions of test compound that were made in assay medium (0.1% bovine serum albumin in Hanks Balanced Salt Solution (GIBCO or Sigma), containing 0.5 mM IBMX (Sigma)). All sample dilutions were made in duplicate. […] Cells were then re-suspended in assay buffer at the optimized concentration of 1×10^5 cells/mL and dispensed at 5 uL per well to black shallow-well u-bottom 384-well plates (Corning). 5 μL of test compound was transferred from the dilution plate to the cell plate and incubated at room temperature for 30 minutes. cAMP levels were measured the cAMP dynamic 2 HTRF kit (Cisbio), following the two step protocol as per manufacturer's recommendations. Briefly, anti-cAMP cryptate (donor fluorophore) and cAMP-d2 (acceptor fluorophore) were made up separately by diluting each 1/20 in conjugate & lysis buffer provided in the kit. 5 uL of anti-cAMP cryptate was added to all wells of the assay plate and 5 uL of cAMP-d2 added to all wells except non-specific binding wells, to which only conjugate and lysis buffer was added. […] Data was transformed to % Delta F as described in manufacturer's guidelines and analyzed by unconstrained 4-parameter logistic fit of data, curve mid-point to determine EC50.

B1: PC9#2_GLP-1_VL: GLP-1 analogue SEQ ID NO:28 fused via linker SEQ ID NO:4 to light chain of PC9#2 (SEQ ID NO: 43) (protein)
chain: HGEGTFTSDVSSYLEEQAAKEFIAWLVKGGGGGGGSGGGGSGGGGSADIQMTQSPSSLSASVGDRVTITCKASQDVHTAVAWYQQKPGKAPKLLIYHASYRYTGVPSRFSGSGSGTDFTFTISSLQPEDIATYYCQQRYSLWRTFGQGTKLEIKR
modifications: heavy chain not cited
Consider B1, for which, where the note is “Table 13, EC50 relative to GLP1-Fc”, the x change stood at 2.4.

B2: HS9_DSB7_G2Y: HS9_DSB7 with peptide point mutation G2Y; SEQ ID NO: 444 (protein)
chain: HYEGTFTSDLSKQMEEECVRLFIEWLKNGGPSSGAPPPGCGGGGGSGGGGSGGGGSADIQMTQSPSSLSASVGDRVTITCQASQDVKTAVAWYQQKPGKAPKLLIYSASYRYTGVPSRFSGSGSGTDFTFTISSLQPEDIATYYCQQRYSLWRTFGQGTKLEIK
Regarding B2, the “% Max Effect” value is 10%.

B3: HS9_DSB7_G2Q: HS9_DSB7 with peptide point mutation G2Q; SEQ ID NO: 447 (protein)
chain: HQEGTFTSDLSKQMEEECVRLFIEWLKNGGPSSGAPPPGCGGGGGSGGGGSGGGGSADIQMTQSPSSLSASVGDRVTITCQASQDVKTAVAWYQQKPGKAPKLLIYSASYRYTGVPSRFSGSGSGTDFTFTISSLQPEDIATYYCQQRYSLWRTFGQGTKLEIK
As for B3, the “% Max Effect” value is reported as 86%.

B4: HS9_DSB7_V19S: HS9_DSB7 with peptide point mutation V19S; SEQ ID NO: 454 (protein)
chain: HGEGTFTSDLSKQMEEECSRLFIEWLKNGGPSSGAPPPGCGGGGGSGGGGSGGGGSADIQMTQSPSSLSASVGDRVTITCQASQDVKTAVAWYQQKPGKAPKLLIYSASYRYTGVPSRFSGSGSGTDFTFTISSLQPEDIATYYCQQRYSLWRTFGQGTKLEIK
For the molecule B4, the “% Max Effect” value came to 94%.

B5: HS9_DSB7_G2N: HS9_DSB7 with peptide point mutation G2N; SEQ ID NO: 448 (protein)
chain: HNEGTFTSDLSKQMEEECVRLFIEWLKNGGPSSGAPPPGCGGGGGSGGGGSGGGGSADIQMTQSPSSLSASVGDRVTITCQASQDVKTAVAWYQQKPGKAPKLLIYSASYRYTGVPSRFSGSGSGTDFTFTISSLQPEDIATYYCQQRYSLWRTFGQGTKLEIK
B5: the “% Max Effect” value is reported as 31%.

B6: HS9_DSB7_V19T: HS9_DSB7 with peptide point mutation V19T; SEQ ID NO: 453 (protein)
chain: HGEGTFTSDLSKQMEEECTRLFIEWLKNGGPSSGAPPPGCGGGGGSGGGGSGGGGSADIQMTQSPSSLSASVGDRVTITCQASQDVKTAVAWYQQKPGKAPKLLIYSASYRYTGVPSRFSGSGSGTDFTFTISSLQPEDIATYYCQQRYSLWRTFGQGTKLEIK
For B6, the “% Max Effect” value was 95%.

B7: HS9_DSB7_L26P: HS9_DSB7 with peptide point mutation L26P; SEQ ID NO: 463 (protein)
chain: HGEGTFTSDLSKQMEEECVRLFIEWPKNGGPSSGAPPPGCGGGGGSGGGGSGGGGSADIQMTQSPSSLSASVGDRVTITCQASQDVKTAVAWYQQKPGKAPKLLIYSASYRYTGVPSRFSGSGSGTDFTFTISSLQPEDIATYYCQQRYSLWRTFGQGTKLEIK
For the molecule B7, the “% Max Effect” value amounted to 60%.

B8: HS9_DSB7_I23A: HS9_DSB7 with peptide point mutation I23A; SEQ ID NO: 460 (protein)
chain: HGEGTFTSDLSKQMEEECVRLFAEWLKNGGPSSGAPPPGCGGGGGSGGGGSGGGGSADIQMTQSPSSLSASVGDRVTITCQASQDVKTAVAWYQQKPGKAPKLLIYSASYRYTGVPSRFSGSGSGTDFTFTISSLQPEDIATYYCQQRYSLWRTFGQGTKLEIK
For B8, the “% Max Effect” value was 67%.

B9: HS9_DSB7_L26T: HS9_DSB7 with peptide point mutation L26T; SEQ ID NO: 461 (protein)
chain: HGEGTFTSDLSKQMEEECVRLFIEWTKNGGPSSGAPPPGCGGGGGSGGGGSGGGGSADIQMTQSPSSLSASVGDRVTITCQASQDVKTAVAWYQQKPGKAPKLLIYSASYRYTGVPSRFSGSGSGTDFTFTISSLQPEDIATYYCQQRYSLWRTFGQGTKLEIK
Consider B9, for which the “% Max Effect” value worked out at 87%.

B10: HS9_DSB7_G2F: HS9_DSB7 with peptide point mutation G2F; SEQ ID NO: 450 (protein)
chain: HFEGTFTSDLSKQMEEECVRLFIEWLKNGGPSSGAPPPGCGGGGGSGGGGSGGGGSADIQMTQSPSSLSASVGDRVTITCQASQDVKTAVAWYQQKPGKAPKLLIYSASYRYTGVPSRFSGSGSGTDFTFTISSLQPEDIATYYCQQRYSLWRTFGQGTKLEIK
For the molecule B10, the “% Max Effect” value is recorded as 69%.

B11: HS9_DSB7_I23T: HS9_DSB7 with peptide point mutation I23T; SEQ ID NO: 457 (protein)
chain: HGEGTFTSDLSKQMEEECVRLFTEWLKNGGPSSGAPPPGCGGGGGSGGGGSGGGGSADIQMTQSPSSLSASVGDRVTITCQASQDVKTAVAWYQQKPGKAPKLLIYSASYRYTGVPSRFSGSGSGTDFTFTISSLQPEDIATYYCQQRYSLWRTFGQGTKLEIK
In the case of B11, the “Potency at huGLP-1R in cAMP assay (M)” value is “Inactive” and the “% Max Effect” value is listed as “Inactive”.

B12: HS9_DSB7_I23S: HS9_DSB7 with peptide point mutation I23S; SEQ ID NO: 458 (protein)
chain: HGEGTFTSDLSKQMEEECVRLFSEWLKNGGPSSGAPPPGCGGGGGSGGGGSGGGGSADIQMTQSPSSLSASVGDRVTITCQASQDVKTAVAWYQQKPGKAPKLLIYSASYRYTGVPSRFSGSGSGTDFTFTISSLQPEDIATYYCQQRYSLWRTFGQGTKLEIK
B12: the “Potency at huGLP-1R in cAMP assay (M)” value is “Inactive” and the “% Max Effect” value is “Inactive”.

B13: HS9_DSB7_G2I: HS9_DSB7 with peptide point mutation G2I; SEQ ID NO: 449 (protein)
chain: HIEGTFTSDLSKQMEEECVRLFIEWLKNGGPSSGAPPPGCGGGGGSGGGGSGGGGSADIQMTQSPSSLSASVGDRVTITCQASQDVKTAVAWYQQKPGKAPKLLIYSASYRYTGVPSRFSGSGSGTDFTFTISSLQPEDIATYYCQQRYSLWRTFGQGTKLEIK
On to B13, for which the “% Max Effect” value was found to be 87%.

B14: HS9_DSB7_G2T: HS9_DSB7 with peptide point mutation G2T; SEQ ID NO: 446 (protein)
chain: HTEGTFTSDLSKQMEEECVRLFIEWLKNGGPSSGAPPPGCGGGGGSGGGGSGGGGSADIQMTQSPSSLSASVGDRVTITCQASQDVKTAVAWYQQKPGKAPKLLIYSASYRYTGVPSRFSGSGSGTDFTFTISSLQPEDIATYYCQQRYSLWRTFGQGTKLEIK
On to B14, for which the “% Max Effect” value was found to be 73%.

B15: HS9_DSB7_I23G: HS9_DSB7 with peptide point mutation I23G; SEQ ID NO: 459 (protein)
chain: HGEGTFTSDLSKQMEEECVRLFGEWLKNGGPSSGAPPPGCGGGGGSGGGGSGGGGSADIQMTQSPSSLSASVGDRVTITCQASQDVKTAVAWYQQKPGKAPKLLIYSASYRYTGVPSRFSGSGSGTDFTFTISSLQPEDIATYYCQQRYSLWRTFGQGTKLEIK
Take B15: the “% Max Effect” value stood at 82%.

B16: HS9_DSB7_L26Q: HS9_DSB7 with peptide point mutation L26Q; SEQ ID NO: 465 (protein)
chain: HGEGTFTSDLSKQMEEECVRLFIEWQKNGGPSSGAPPPGCGGGGGSGGGGSGGGGSADIQMTQSPSSLSASVGDRVTITCQASQDVKTAVAWYQQKPGKAPKLLIYSASYRYTGVPSRFSGSGSGTDFTFTISSLQPEDIATYYCQQRYSLWRTFGQGTKLEIK
With B16, the “% Max Effect” value worked out at 34%.

B17: HS9_DSB7_L26M: HS9_DSB7 with peptide point mutation L26M; SEQ ID NO: 466 (protein)
chain: HGEGTFTSDLSKQMEEECVRLFIEWMKNGGPSSGAPPPGCGGGGGSGGGGSGGGGSADIQMTQSPSSLSASVGDRVTITCQASQDVKTAVAWYQQKPGKAPKLLIYSASYRYTGVPSRFSGSGSGTDFTFTISSLQPEDIATYYCQQRYSLWRTFGQGTKLEIK
On to B17, for which the “% Max Effect” value was 90%.

B18: HS9_DSB7_L26S: HS9_DSB7 with peptide point mutation L26S; SEQ ID NO: 462 (protein)
chain: HGEGTFTSDLSKQMEEECVRLFIEWSKNGGPSSGAPPPGCGGGGGSGGGGSGGGGSADIQMTQSPSSLSASVGDRVTITCQASQDVKTAVAWYQQKPGKAPKLLIYSASYRYTGVPSRFSGSGSGTDFTFTISSLQPEDIATYYCQQRYSLWRTFGQGTKLEIK
In the case of B18, the “Potency at huGLP-1R in cAMP assay (M)” value is “Inactive” and the “% Max Effect” value is “Inactive”.

B19: HS9_DSB7_L26N: HS9_DSB7 with peptide point mutation L26N; SEQ ID NO: 464 (protein)
chain: HGEGTFTSDLSKQMEEECVRLFIEWNKNGGPSSGAPPPGCGGGGGSGGGGSGGGGSADIQMTQSPSSLSASVGDRVTITCQASQDVKTAVAWYQQKPGKAPKLLIYSASYRYTGVPSRFSGSGSGTDFTFTISSLQPEDIATYYCQQRYSLWRTFGQGTKLEIK
For the molecule B19, the “% Max Effect” value stood at 44%.

B20: HS9_DSB7_V19G: HS9_DSB7 with peptide point mutation V19G; SEQ ID NO: 455 (protein)
chain: HGEGTFTSDLSKQMEEECGRLFIEWLKNGGPSSGAPPPGCGGGGGSGGGGSGGGGSADIQMTQSPSSLSASVGDRVTITCQASQDVKTAVAWYQQKPGKAPKLLIYSASYRYTGVPSRFSGSGSGTDFTFTISSLQPEDIATYYCQQRYSLWRTFGQGTKLEIK
For B20, the “% Max Effect” value came to 93%.
